Results on three molecules are retold here after patent US7053044B1, “Artificial peptides having surface activity and the use thereof in the preparation of artificial surfactant” (Chiesi Farmaceutici S.p.A., priority 1999, dated 2006).

Ends that are not written are not given here.

The nature of data set [1]: SDS-PAGE (oligomer formation). The format is physicochemical. An excerpt: The purity of the peptide was checked by sodium-dodecylsulphate (SDS) polyacrylamide gel electrophoresis (PAGE) (Phast-system, Pharmacia, Sweden) and by reversed phase high performance liquid chromatography (HPLC), using a C18 column and a linear gradient of 60% aqueous methanol/0.1% TFA and isopropanol/0.1% TFA (Gustafsson, M. et al. (1997) Biochem. J. 326, 799–806).

For data set [2] the following is noted: Nilsson, G. et al. (1998) Eur. J. Biochem. 255, 116–124; cited from earlier work.
Data set [3] can be described thus: Surface film stability, captive bubble system. The format is physicochemical. Conditions: surfactant mixtures, samples containing 5% of peptide. Here is the method:
In an even more preferred embodiment of the invention, surfactant mixtures containing the peptide in which palmitoyl chains are O-covalently linked to the Ser residues should be used. […] In the samples containing 5% of dipalmitoylated peptide, the γmin was below 1.5 mN/m and the films very stable, as the surface tension increased by less than 0.5 mN/m within 10 min at constant bubble volume.

Data set [4] can be described thus: Peptide secondary structure by circular dichroism (CD) spectroscopy. The format is physicochemical. How it is done: Peptide secondary structure was investigated using circular dichroism (CD) spectroscopy (Jasco-720 Jasco, Japan). After solubilisation with triflouroethanol (TFE) spectra were recorded from 260 to 184 nm with a scan speed of 20 nm/min and a resolution of 2 data points/nm. The residual molar ellipticy was calculated and expressed in kdeg×cm^2/dmol. Molar ellipticities at 208 and 222 nm were utilised for estimating the content of helical structure (Barrow, C. J. et al. (1992) J. Mol. Biol. 225, 1075–1093).
(Circular dichroism is widely used to follow secondary structure.)

Data set [5] can be described thus: Preparation of peptide/lipid mixtures (attainable lipid concentration). As to conditions: polypeptide/lipid ratio of 0.03. The format is physicochemical. How it is done: DPPC, PG and PA were all purchased from Sigma Chemical Co. (St Louis, Mo.). The lipids, dissolved in chloroform/methanol 98:2 (v/v), were mixed in the proportions DPPC:PG:PA 68:22:9 (w/w/w) or DPPC/PG 7:3 (w/w). Surfactant preparations were prepared by adding SP-C(LKS) alone or SP-C(LKS) and SP-B, to each of the lipid mixtures, at total polypeptide/lipid weight ratios of 0–0.05. The mixtures were evaporated under nitrogen and resuspended in 150 mmol/l NaCl or in 10 mmol/l Hepes buffer pH 6,9 containing 140 mmol/l NaCl and 2.0 mmol/l CaCl2, at lipid concentrations of 10–80 mg/ml. Repeated freezing and sonication (50 W, 48 kHz) were performed until homogeneous suspensions were achieved. In some cases the final suspensions were incubated at 45° C. for 1 h.

Data set [6] concerns the molecule itself. Put plainly: SDS-PAGE, self-association (oligomerisation).

“SP-C(Leu): reference peptide; transmembranous SP-C analogue with all helical Val residues replaced with Leu (Nilsson et al.) (FGIPSSPVLKRLLILLLLLLLILLLILGALLMGL)”: the “SDS-PAGE pattern (oligomerisation)” value in data set [1] is on record as “forms oligomers”. Further, the “highest concentration of lipid-peptide mixture that can be prepared / solubilized” value in data set [2] is not above 20 mg/mL. For the same molecule, the “γmin (captive bubble system)” value in data set [3] is “approx. 5 mN/m”.

In the case of “FGIPSSPVHLKRLLILKLLLLKILLLKLGALLMGL [SP-C(LKS), SP-C analogue: Val 16–28 replaced with Leu, Lys at 17, 22, 27, Cys 5 and 6 replaced with Ser]”, the “SDS-PAGE pattern (oligomerisation)” value in data set [1] is “single band”. In addition, the α-helical content entry in data set [4] (solubilised in TFE, estimated from the 208 nm and 222 nm minima) is listed as “approximately 75%”. In data set [4] (stepwise dilution with H2O until 12% TFE, peptide solubilized in neat TFE), the “secondary structure on dilution” value is “remained stable”. Besides, the “lipid concentration of peptide/lipid mixture that could be made” value in data set [5] is 80 mg/mL.

B1: SP-C(LKS) (peptide)
peptide: FGIPSSPVHLKRLLILKLLLLKILLLKLGALLMGL
modifications: ends and bridges not checked
notes: The non-acylated form was run in SDS-PAGE; also called analogue of SP-C
For the molecule B1, the binding result in data set [6] is listed as “no binding”.
